Where no end group is shown, it is not given here. [ ]: non-standard residue; d: D form. pS = N[C@@H](COP(=O)(O)O)C(=O)O
Biological target: T1, 15N-labeled PIN1 WW domain (PIN1 residues 1-50) (UniProt Q13526 1-50)
T1 construct: PIN1 residues 1-50 (WW domain); The methods describe a pET28 His6-TEV construct for PIN1; also called 15N-PIN1-WW; source: expressed and purified, 15N-labeled
Test: NMR titration; 1H-15N HSQC of 15N-PIN1-WW at constant concentration, peptide serially diluted (reverse titration), 25 °C, 600 MHz; fit to a simple bimolecular model; apparent
Settings: both partners purified

T1 sequence (Q13526 1-50): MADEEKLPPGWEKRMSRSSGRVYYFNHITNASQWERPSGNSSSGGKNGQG

B1: IRAK-M-pS110 peptide (IRAK-M residues 103-124 with Ser110 phosphorylated) (peptide)
peptide: TNYGAVL[pS]PSEKSYQEGGFPNI
notes: IRAK-M (IRAK3) residues 103-124; also called IRAK-M phosphopeptide; pIRAK-M-pS110; source: synthetic peptide (Tufts University Core Facility)
Kd: 60.7 µM

From article PMC5913134, “The IL-33-PIN1-IRAK-M axis is critical for type 2 immunity in IL-33-induced allergic airway inflammation” (Nature Communications, 2018)
